One molecule from paper PMC6449974 (2019) can be followed below.

For orientation: Kd means the equilibrium constant for the complex coming apart.

The target of the assay is Cyclophilin A (Homo sapiens, UniProt P62937). Put plainly: SPR. (SPR reads the build-up and loss of mass on a sensor chip optically.)

B1: HIV-1 capsid protein CA (unassembled) (protein)
chain: not shown
B1 came in with a Kd of roughly 27 µM.
